# Data taken from PMC4231748, “Human PrimPol mutation associated with high myopia has a DNA replication defect”.
# T1: PrimPolY89D1-354 (polymerase domain) (human, UniProt Q96LW4 1-354, Y89D)
# T1 sequence: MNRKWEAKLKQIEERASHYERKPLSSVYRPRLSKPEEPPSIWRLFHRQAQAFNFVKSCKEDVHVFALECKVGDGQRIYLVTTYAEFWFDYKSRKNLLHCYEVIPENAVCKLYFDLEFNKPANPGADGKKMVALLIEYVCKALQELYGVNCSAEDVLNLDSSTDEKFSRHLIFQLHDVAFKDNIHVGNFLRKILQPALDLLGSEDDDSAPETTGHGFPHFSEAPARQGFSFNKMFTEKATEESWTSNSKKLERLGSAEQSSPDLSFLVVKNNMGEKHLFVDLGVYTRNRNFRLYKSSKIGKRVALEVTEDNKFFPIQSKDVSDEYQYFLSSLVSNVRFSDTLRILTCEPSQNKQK
# Target: T1, PrimPolY89D1-354 (polymerase domain)
# Assay: EMSA; 10 mM Mg2+; EMSA: 60 nM DNA, 10 mM Bis-Tris-Propane-HCl pH 7.0, 10 mM MgCl2, 1 mM DTT, 25 C, 60 min; 5% polyacrylamide gel in 0.5x TBE
# Conditions: protein: recombinant; label: 5'-Hex on strand 1 (HP-20); 20 bp duplex, 5' overhang 30 nt on template strand (S12), other end blunt
binder,measurement,value
Overhanging DNA substrate (HP-20 primer / ND-50 TemplateTT) (dsDNA) DNA 1: TGTCGTCTGTTCGGTCGTTC DNA 2: CGCGCAGGGCGCACAACAGCCTTGAAGACCGAACGACCGAACAGACGACA,Kd,2550 nM
